Test [1] addresses T1, rat calcitonin receptor (rat, UniProt P32214 25-516).
T1 construct: whole, on cells; Membranes prepared from transiently transfected BHK tk'ts 13 cells; also called rCTR; rat calcitonin (a) receptor
T1 sequence (looked up): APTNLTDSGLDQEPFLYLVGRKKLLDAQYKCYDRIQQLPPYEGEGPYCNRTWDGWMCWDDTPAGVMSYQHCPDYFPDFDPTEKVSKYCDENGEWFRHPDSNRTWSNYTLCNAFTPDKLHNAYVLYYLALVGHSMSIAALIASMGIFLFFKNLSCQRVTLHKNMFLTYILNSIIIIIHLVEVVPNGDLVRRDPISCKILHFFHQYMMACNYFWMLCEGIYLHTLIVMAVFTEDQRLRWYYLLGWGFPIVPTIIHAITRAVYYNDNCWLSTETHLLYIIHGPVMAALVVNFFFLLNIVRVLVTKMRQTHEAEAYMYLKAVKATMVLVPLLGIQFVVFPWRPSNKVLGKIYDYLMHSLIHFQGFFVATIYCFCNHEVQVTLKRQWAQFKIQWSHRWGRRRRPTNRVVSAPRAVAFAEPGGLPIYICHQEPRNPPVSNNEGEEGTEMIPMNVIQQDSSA
The experiment in a line: SPA competition vs 125I-calcitonin, membranes (Assay VIII).

For test [2], the target named is T2, human calcitonin receptor (human, UniProt P30988 25-474).
T2 construct: whole, on cells; Membranes from stably transfected BHK cells; also called hCTR; hCT
T2 sequence (looked up): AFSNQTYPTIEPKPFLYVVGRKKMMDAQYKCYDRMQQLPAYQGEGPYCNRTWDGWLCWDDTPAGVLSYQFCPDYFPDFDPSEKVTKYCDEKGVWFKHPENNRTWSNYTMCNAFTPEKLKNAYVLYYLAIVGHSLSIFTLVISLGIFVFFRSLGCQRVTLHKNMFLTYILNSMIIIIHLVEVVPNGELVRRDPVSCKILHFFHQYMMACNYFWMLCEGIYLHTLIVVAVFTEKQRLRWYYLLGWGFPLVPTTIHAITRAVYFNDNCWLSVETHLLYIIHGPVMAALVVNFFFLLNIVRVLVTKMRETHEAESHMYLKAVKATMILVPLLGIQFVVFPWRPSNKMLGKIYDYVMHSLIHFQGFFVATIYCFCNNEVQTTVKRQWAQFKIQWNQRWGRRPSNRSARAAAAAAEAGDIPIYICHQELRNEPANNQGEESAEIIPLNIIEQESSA
The experiment in a line: ratio of IC50 on human calcitonin receptor to IC50 on human amylin receptor. The method in brief: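 Scintillation proximity competition binding on cell membranes at 35 ng/μL with SPA beads, in 50 mM Hepes pH 7.4, 1 mM CaCl2, 5 mM MgCl₂, 0.1% OA, 0.02% Tween20. Incubated 120 min at 25° C with shaking. IC₅₀ from one-site competition fit.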

Test [3] has as its target T3, rat amylin receptor (rat calcitonin receptor + rat RAMP 3) (rat, UniProt P32214 25-516; Q9JJ73 23-147).
T3 construct: whole, on cells; Membranes prepared from transiently transfected BHK tk'ts 13 cells; also called rAmylin-R; rat amylin 3(a) receptor
T3 sequence (looked up) 1: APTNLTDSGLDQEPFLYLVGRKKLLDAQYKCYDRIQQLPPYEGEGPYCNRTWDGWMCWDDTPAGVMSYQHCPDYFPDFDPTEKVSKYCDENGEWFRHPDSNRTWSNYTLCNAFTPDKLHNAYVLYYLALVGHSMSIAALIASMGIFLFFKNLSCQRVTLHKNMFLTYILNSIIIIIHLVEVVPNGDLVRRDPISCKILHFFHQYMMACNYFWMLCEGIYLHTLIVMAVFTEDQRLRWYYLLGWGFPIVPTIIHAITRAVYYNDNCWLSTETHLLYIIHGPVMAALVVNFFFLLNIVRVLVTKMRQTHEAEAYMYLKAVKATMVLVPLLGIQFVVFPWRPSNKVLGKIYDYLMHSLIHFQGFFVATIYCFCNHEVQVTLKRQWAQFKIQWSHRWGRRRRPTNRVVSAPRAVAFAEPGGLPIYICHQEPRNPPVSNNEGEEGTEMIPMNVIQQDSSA
T3 sequence (looked up) 2: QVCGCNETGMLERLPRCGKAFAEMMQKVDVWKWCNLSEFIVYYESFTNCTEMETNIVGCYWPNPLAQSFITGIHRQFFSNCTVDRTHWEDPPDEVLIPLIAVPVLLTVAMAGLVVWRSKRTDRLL
The experiment in a line: SPA competition vs 125I-rat amylin, membranes (Assay VI).

Test [4] concerns the target T1, rat calcitonin receptor. The experiment in a line: ratio of IC50 on rat calcitonin receptor to IC50 on rat amylin receptor.

Numbered stars: 1 amine (or outer) side, 2 acyl side, 3 side chain; on linkers, the order of the positions; unused ones are H or OH. Bridge positions count the residues as written; N and C are the ends. Side chains are listed from the residue outwards. Ends that are not written are not given here. * marks the point of attachment. C20 diacid = O=C(O)CCCCCCCCCCCCCCCCCCC(=O)*; γGlu = O=C(O)[C@H](CCC(=O)[*:2])N[*:1]

B1: N^ε1-[(4S)-4-carboxy-4-(19-carboxynonadecanoylamino)butanoyl]-[Glu14,Arg17,Pro21,Pro27,Arg34,Glu35]-h-amylin (peptide)
peptide: K([γGlu-C20 diacid])CNTATCATQRLAEFLRHSSPNFGAIPSSTNVGRETY-NH2
modifications: disulfide 2-7; N-terminus assumed
SMILES: CC[C@H](C)[C@H](NC(=O)[C@H](C)NC(=O)CNC(=O)[C@H](Cc1ccccc1)NC(=O)[C@H](CC(N)=O)NC(=O)[C@@H]1CCCN1C(=O)[C@H](CO)NC(=O)[C@H](CO)NC(=O)[C@H](Cc1c[nH]cn1)NC(=O)[C@H](CCCNC(=N)N)NC(=O)[C@H](CC(C)C)NC(=O)[C@H](Cc1ccccc1)NC(=O)[C@H](CCC(=O)O)NC(=O)[C@H](C)NC(=O)[C@H](CC(C)C)NC(=O)[C@H](CCCNC(=N)N)NC(=O)[C@H](CCC(N)=O)NC(=O)[C@@H](NC(=O)[C@H](C)NC(=O)[C@@H]1CSSC[C@H](NC(=O)[C@@H](N)CCCCNC(=O)CC[C@H](NC(=O)CCCCCCCCCCCCCCCCCCC(=O)O)C(=O)O)C(=O)N[C@@H](CC(N)=O)C(=O)N[C@@H]([C@@H](C)O)C(=O)N[C@@H](C)C(=O)N[C@@H]([C@@H](C)O)C(=O)N1)[C@@H](C)O)C(=O)N1CCC[C@H]1C(=O)N[C@@H](CO)C(=O)N[C@@H](CO)C(=O)N[C@H](C(=O)N[C@@H](CC(N)=O)C(=O)N[C@H](C(=O)NCC(=O)N[C@@H](CCCNC(=N)N)C(=O)N[C@@H](CCC(=O)O)C(=O)N[C@H](C(=O)N[C@@H](Cc1ccc(O)cc1)C(N)=O)[C@@H](C)O)C(C)C)[C@@H](C)O
On to B1, for which the results for the IC50 (with rat calcitonin receptor [1]; in test [3]) were 86.1 nM and 1.06 nM, respectively. Besides, in test [2], the “Ratio hCT/hAmylin binding” value was 28.5. Further, the “Ratio rCT/rAmylin binding” value with rat calcitonin receptor [4] was 81.1.

B2: N^ε1-[(4S)-4-carboxy-4-(19-carboxynonadecanoylamino)butanoyl]-[Glu14,Arg17,Pro21,Pro27,Pro34,Arg35]-h-amylin (peptide)
peptide: K([γGlu-C20 diacid])CNTATCATQRLAEFLRHSSPNFGAIPSSTNVGPRTY-NH2
modifications: disulfide 2-7; N-terminus assumed
SMILES: CC[C@H](C)[C@H](NC(=O)[C@H](C)NC(=O)CNC(=O)[C@H](Cc1ccccc1)NC(=O)[C@H](CC(N)=O)NC(=O)[C@@H]1CCCN1C(=O)[C@H](CO)NC(=O)[C@H](CO)NC(=O)[C@H](Cc1c[nH]cn1)NC(=O)[C@H](CCCNC(=N)N)NC(=O)[C@H](CC(C)C)NC(=O)[C@H](Cc1ccccc1)NC(=O)[C@H](CCC(=O)O)NC(=O)[C@H](C)NC(=O)[C@H](CC(C)C)NC(=O)[C@H](CCCNC(=N)N)NC(=O)[C@H](CCC(N)=O)NC(=O)[C@@H](NC(=O)[C@H](C)NC(=O)[C@@H]1CSSC[C@H](NC(=O)[C@@H](N)CCCCNC(=O)CC[C@H](NC(=O)CCCCCCCCCCCCCCCCCCC(=O)O)C(=O)O)C(=O)N[C@@H](CC(N)=O)C(=O)N[C@@H]([C@@H](C)O)C(=O)N[C@@H](C)C(=O)N[C@@H]([C@@H](C)O)C(=O)N1)[C@@H](C)O)C(=O)N1CCC[C@H]1C(=O)N[C@@H](CO)C(=O)N[C@@H](CO)C(=O)N[C@H](C(=O)N[C@@H](CC(N)=O)C(=O)N[C@H](C(=O)NCC(=O)N1CCC[C@H]1C(=O)N[C@@H](CCCNC(=N)N)C(=O)N[C@H](C(=O)N[C@@H](Cc1ccc(O)cc1)C(N)=O)[C@@H](C)O)C(C)C)[C@@H](C)O
With B2, the IC50 (as a rule, the concentration that inhibits the measured activity by half) with rat calcitonin receptor [1] amounted to 15.4 nM; in test [3] it was 0.339 nM. In test [2], the “Ratio hCT/hAmylin binding” value was determined as 38.6. The “Ratio rCT/rAmylin binding” value with rat calcitonin receptor [4] was 45.5.

B3: N^ε1-[(4S)-4-carboxy-4-(19-carboxynonadecanoylamino)butanoyl]-[Glu14,Arg17,Pro21,Pro27,His35]-h-amylin (peptide)
peptide: K([γGlu-C20 diacid])CNTATCATQRLAEFLRHSSPNFGAIPSSTNVGSHTY-NH2
modifications: disulfide 2-7; N-terminus assumed
SMILES: CC[C@H](C)[C@H](NC(=O)[C@H](C)NC(=O)CNC(=O)[C@H](Cc1ccccc1)NC(=O)[C@H](CC(N)=O)NC(=O)[C@@H]1CCCN1C(=O)[C@H](CO)NC(=O)[C@H](CO)NC(=O)[C@H](Cc1c[nH]cn1)NC(=O)[C@H](CCCNC(=N)N)NC(=O)[C@H](CC(C)C)NC(=O)[C@H](Cc1ccccc1)NC(=O)[C@H](CCC(=O)O)NC(=O)[C@H](C)NC(=O)[C@H](CC(C)C)NC(=O)[C@H](CCCNC(=N)N)NC(=O)[C@H](CCC(N)=O)NC(=O)[C@@H](NC(=O)[C@H](C)NC(=O)[C@@H]1CSSC[C@H](NC(=O)[C@@H](N)CCCCNC(=O)CC[C@H](NC(=O)CCCCCCCCCCCCCCCCCCC(=O)O)C(=O)O)C(=O)N[C@@H](CC(N)=O)C(=O)N[C@@H]([C@@H](C)O)C(=O)N[C@@H](C)C(=O)N[C@@H]([C@@H](C)O)C(=O)N1)[C@@H](C)O)C(=O)N1CCC[C@H]1C(=O)N[C@@H](CO)C(=O)N[C@@H](CO)C(=O)N[C@H](C(=O)N[C@@H](CC(N)=O)C(=O)N[C@H](C(=O)NCC(=O)N[C@@H](CO)C(=O)N[C@@H](Cc1c[nH]cn1)C(=O)N[C@H](C(=O)N[C@@H](Cc1ccc(O)cc1)C(N)=O)[C@@H](C)O)C(C)C)[C@@H](C)O
B3: the IC50 in the test with rat calcitonin receptor [1] was determined as 26.3 nM; in test [3] it was 1.16 nM. For the same molecule, the “Ratio hCT/hAmylin binding” value in test [2] came out at 26.4. In the test with rat calcitonin receptor [4], the “Ratio rCT/rAmylin binding” value was determined as 22.7.
Regarding K([γGlu-C20 diacid])CNTATCATQRLAEFLRHSSPNFGAIPSSTNVGPHTY-NH2 (disulfide 2-7), the figures for the IC50 (with rat calcitonin receptor [1]; in test [3]) were 5.43 nM and 0.104 nM, respectively. Moreover, the “Ratio hCT/hAmylin binding” value in test [2] stood at 21.2. The “Ratio rCT/rAmylin binding” value with rat calcitonin receptor [4] came to 52.2.

B4: N^ε1-[(4S)-4-carboxy-4-(19-carboxynonadecanoylamino)butanoyl]-[Glu14,Arg17,Pro21,Pro27,His34,Glu35]-h-amylin (peptide)
peptide: K([γGlu-C20 diacid])CNTATCATQRLAEFLRHSSPNFGAIPSSTNVGHETY-NH2
modifications: disulfide 2-7; N-terminus assumed
SMILES: CC[C@H](C)[C@H](NC(=O)[C@H](C)NC(=O)CNC(=O)[C@H](Cc1ccccc1)NC(=O)[C@H](CC(N)=O)NC(=O)[C@@H]1CCCN1C(=O)[C@H](CO)NC(=O)[C@H](CO)NC(=O)[C@H](Cc1c[nH]cn1)NC(=O)[C@H](CCCNC(=N)N)NC(=O)[C@H](CC(C)C)NC(=O)[C@H](Cc1ccccc1)NC(=O)[C@H](CCC(=O)O)NC(=O)[C@H](C)NC(=O)[C@H](CC(C)C)NC(=O)[C@H](CCCNC(=N)N)NC(=O)[C@H](CCC(N)=O)NC(=O)[C@@H](NC(=O)[C@H](C)NC(=O)[C@@H]1CSSC[C@H](NC(=O)[C@@H](N)CCCCNC(=O)CC[C@H](NC(=O)CCCCCCCCCCCCCCCCCCC(=O)O)C(=O)O)C(=O)N[C@@H](CC(N)=O)C(=O)N[C@@H]([C@@H](C)O)C(=O)N[C@@H](C)C(=O)N[C@@H]([C@@H](C)O)C(=O)N1)[C@@H](C)O)C(=O)N1CCC[C@H]1C(=O)N[C@@H](CO)C(=O)N[C@@H](CO)C(=O)N[C@H](C(=O)N[C@@H](CC(N)=O)C(=O)N[C@H](C(=O)NCC(=O)N[C@@H](Cc1c[nH]cn1)C(=O)N[C@@H](CCC(=O)O)C(=O)N[C@H](C(=O)N[C@@H](Cc1ccc(O)cc1)C(N)=O)[C@@H](C)O)C(C)C)[C@@H](C)O
notes: also called compound 107
For the molecule B4, the IC50 is 33.1 nM in the test with rat calcitonin receptor [1] and 0.958 nM in test [3]. In test [2], the “Ratio hCT/hAmylin binding” value was found to be 11.1. For the same molecule, in the test with rat calcitonin receptor [4], the “Ratio rCT/rAmylin binding” value came out at 34.6.
